The record followed here is patent US20060183194A1 (Genentech, published 2006).

Ends that are not written are not given here.

The target in assay [1] is T1, ErbB-3 receptor-Ig fusion (human, UniProt P21860 20-643).
T1 construct: extracellular domain;range 224-C-terminus; also called ErbB-3-Ig; 3/3 homodimer; not shown: human IgG heavy chain constant region from His224 (hinge) on
Put plainly: phage ELISA; soluble ErbB-3-Ig as competitor. In general terms: In an ELISA, binding on a coated surface is turned into a signal by an enzyme label.

The target in assay [2] is T2, ErbB-4 receptor-Ig fusion (human, UniProt Q15303 26-651).
T2 construct: extracellular domain;range 224-C-terminus; also called ErbB-4-Ig; not shown: human IgG heavy chain constant region from His224 (hinge) on
T2 sequence: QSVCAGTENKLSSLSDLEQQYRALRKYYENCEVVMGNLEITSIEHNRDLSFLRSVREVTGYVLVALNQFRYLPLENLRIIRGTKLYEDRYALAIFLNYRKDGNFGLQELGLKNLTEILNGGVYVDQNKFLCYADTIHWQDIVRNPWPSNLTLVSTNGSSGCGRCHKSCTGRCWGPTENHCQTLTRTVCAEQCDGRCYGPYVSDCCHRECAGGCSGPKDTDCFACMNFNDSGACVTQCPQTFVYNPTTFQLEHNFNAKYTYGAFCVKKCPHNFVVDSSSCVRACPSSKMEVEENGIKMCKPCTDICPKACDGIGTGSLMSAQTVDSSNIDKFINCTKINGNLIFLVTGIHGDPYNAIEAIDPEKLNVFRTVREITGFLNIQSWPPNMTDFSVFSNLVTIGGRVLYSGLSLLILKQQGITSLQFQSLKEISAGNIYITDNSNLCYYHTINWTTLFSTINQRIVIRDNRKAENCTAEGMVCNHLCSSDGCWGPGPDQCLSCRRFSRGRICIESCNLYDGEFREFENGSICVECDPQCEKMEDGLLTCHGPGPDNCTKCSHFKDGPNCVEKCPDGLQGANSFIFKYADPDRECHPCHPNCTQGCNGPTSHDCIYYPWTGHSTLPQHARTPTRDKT
Put plainly: phage ELISA; soluble ErbB-4-Ig as competitor.

Assay [3] has as its target T1, ErbB-3 receptor-Ig fusion. Put plainly: phage ELISA; ratio to wild-type HRG-β1 177-244 phage.
Assay [4] addresses T2, ErbB-4 receptor-Ig fusion. The assay is described as above.
The target of assay [5] is T1, ErbB-3 receptor-Ig fusion. Briefly: phage ELISA; soluble ErbB-3-Ig as competitor. This is another data set of the same source.
Experimental: (§1) Microtiter plates (Nunc Maxisorp™ 96-well plates, Inter Med, Denmark) for phage ELISA were prepared as follows. The wells were precoated overnight with 0.5 μg of rabbit anti-human IgG (Fc gamma fragment-specific) antibodies (Jackson Immunoresearch, West Grove, Pa.) in 100 μL 50 mM NaCO₃ (pH 9.6). The wells were blocked for 30 minutes (min) with 200 μL PBS containing 0.1% bovine serum albumin (BSA) and rinsed with wash buffer (PBS containing 0.05% Tween 20™). The wells were then coated with 0.1 μg ErbB-2/3-Ig in binding buffer (PBS, 0.1% BSA, 0.05% Tween 20™) for 1 h, and washed again.
(§2) Serial dilutions of soluble ErbB-2/3-Ig (competitor) and a concentration of phage predetermined to give 60% saturation (without competitor) were added to the wells in 100 μL binding buffer. Following incubation for 2 h at room temperature, plates were washed extensively and treated with a 1:900 dilution of anti-M13 horseradish peroxidase conjugate (Pharmacia, Piscataway, N.J.) for 20 min. The amount of phage binding was determined by assaying horseradish peroxidase activity using o-phenylenediamine dihydrochloride) substrate solution (Sigma Chemical Company, St. Louis, Mo.). EC₅₀ values were calculated as the concentration of soluble ErbB-2/3-Ig required to compete half of the phage off the plate. […]
Assay [6] deals with T2, ErbB-4 receptor-Ig fusion. Briefly: phage ELISA; soluble ErbB-4-Ig as competitor. The source holds these as a separate data set.
Experimental: as §1, §2
Assay [7] deals with T3, ErbB-2/3 receptor-Ig fusion (human, UniProt P04626 23-652; P21860 20-643).
T3 construct: extracellular domain;range 224-C-terminus; Co-expressed in HEK-293; also called ErbB-2/3-Ig; 2/3-heterodimer; not shown: human IgG heavy chain constant region from His224 (hinge) on
Briefly: phage ELISA; soluble ErbB-2/3-Ig competes phage off plate-bound ErbB-2/3-Ig.

Assay [8] has as its target T2, ErbB-4 receptor-Ig fusion. Put plainly: displacement of 125I-HRG from plate-bound ErbB-4-Ig.
Text: For the ErbB-4 binding assays, PBS containing 1% BSA was used as the blocking and binding buffers, and the wash buffer was PBS containing 0.05% Tween 20™.
Assay [9] deals with ErbB-2/3 heterodimers on MCF7 breast cancer carcinoma cells (UniProt P04626 23-1255; P21860 20-1342, limits assumed). Briefly: cell-based or functional assay.
The target of assay [10] is T1, ErbB-3 receptor-Ig fusion. Put plainly: displacement of 125I-HRG from plate-bound ErbB-3-Ig. (In general: Displacement assays read how much labelled ligand stays bound in the presence of the test substance.)
In assay [11] the target is T3, ErbB-2/3 receptor-Ig fusion. Put plainly: displacement of 125I-HRG from plate-bound ErbB-2/3-Ig.
The target is the same in assay [12]. Briefly: told with the 125I-HRG displacement assay; reference ErbB-3-Ig homodimer.
Assay [13] deals with T1, ErbB-3 receptor-Ig fusion. Put plainly: phage ELISA; soluble ErbB-3-Ig as competitor. The source holds these as a separate data set.
Experimental: as §1
(§3) Serial dilutions of soluble ErbB-2/3-Ig (competitor) and a concentration of phage predetermined to give 60% saturation (without competitor) were added to the wells in 100 μL binding buffer. Following incubation for 2 h at room temperature, plates were washed extensively and treated with a 1:900 dilution of anti-M13 horseradish peroxidase conjugate (Pharmacia, Piscataway, N.J.) for 20 min. The amount of phage binding was determined by assaying horseradish peroxidase activity using o-phenylenediamine dihydrochloride) substrate solution (Sigma Chemical Company, St. Louis, Mo.). EC₅₀ values were calculated as the concentration of soluble ErbB-2/3-Ig required to compete half of the phage off the plate.
The target of assay [14] is T2, ErbB-4 receptor-Ig fusion. Briefly: phage ELISA; soluble ErbB-4-Ig as competitor. The source holds these as a separate data set.
Experimental: as §1, §3

For orientation: EC50 means the concentration at which the effect is half-maximal.

T1 sequence (P21860 other isoform, or with tags, fused parts or gaps): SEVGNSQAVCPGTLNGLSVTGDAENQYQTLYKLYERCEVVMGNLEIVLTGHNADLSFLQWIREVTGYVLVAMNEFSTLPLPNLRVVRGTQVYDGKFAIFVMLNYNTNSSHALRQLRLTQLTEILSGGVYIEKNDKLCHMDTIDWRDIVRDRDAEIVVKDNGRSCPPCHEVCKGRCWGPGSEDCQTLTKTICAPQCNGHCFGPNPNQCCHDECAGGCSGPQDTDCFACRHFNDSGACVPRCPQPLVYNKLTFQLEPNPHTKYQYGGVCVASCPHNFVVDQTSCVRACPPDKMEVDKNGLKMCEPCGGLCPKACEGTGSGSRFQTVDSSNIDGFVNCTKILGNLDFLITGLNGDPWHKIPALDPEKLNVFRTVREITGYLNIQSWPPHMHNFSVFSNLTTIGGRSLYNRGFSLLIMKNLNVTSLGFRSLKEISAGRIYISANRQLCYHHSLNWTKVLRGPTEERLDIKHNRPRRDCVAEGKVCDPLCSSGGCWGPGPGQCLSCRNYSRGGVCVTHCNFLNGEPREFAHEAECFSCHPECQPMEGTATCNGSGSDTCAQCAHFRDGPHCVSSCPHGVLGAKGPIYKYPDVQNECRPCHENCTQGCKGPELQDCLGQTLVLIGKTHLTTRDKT

Turning to “HRG-β1 177-244 F216A on phage (from UniProt P69168 265-424) (ligand)”, in [1], the EC50 came out at 500 nM.

Turning to “HRG-β1 177-244 F189A on phage (from UniProt P69168 265-424) (ligand)”, the EC50 in [1] came to 892 nM; in assay [2] it was 106 nM.

With “HRG-β1 177-244 H178W with 228-231 replaced by Met, on phage (from UniProt P69168 265-424) (ligand)”, the EC50 Mut/WT in assay [3] amounted to 1.2; in [4] it was 1.7.

With “HRG-β1 177-244 H178L with 228-231 replaced by Met, on phage (from UniProt P69168 265-424) (ligand)”, the results for the EC50 Mut/WT in assay [3] and in [4] were 6.4 and 1.7, respectively.

B1: HRG8: wild-type HRG-β1 EGF (HRG-β1 177-228) displayed on phage, linker to pIII 323 (ligand, phage M13)
chain: SHLVKCAEKEKTFCVNGGECFMVKDLSNPSRYLCKCPNEFTGDRCQNYVMASGGGSGGGSGGGSNSQMAQVGDGDNSPLMNNFRQYLPSLPQSVECRPFVFSAGKPYEFSIDCDKINLFRGVFAFLLYVATFMYVFSTFANILRNKES
notes: range 323-C-terminus; Monovalent phage display; also called pHRG8-g3; wild-type HRG-β1 EGF phage
In the case of B1, the EC50 in assay [5] amounted to 135 nM; in assay [6] it was 163 nM; in [7], 11 nM.

B2: HRG6: HRG-β1 177-227 displayed on phage, fused to pIII 247 (ligand, phage M13)
chain: SHLVKCAEKEKTFCVNGGECFMVKDLSNPSRYLCKCPNEFTGDRCQNYVMAGGSGGGSGSGDFDYEKMANANKGAMTENADENALQSDAKGKLDSVATDYGAAIDGFIGDVSGLANGNGATGDFAGSNSQMAQVGDGDNSPLMNNFRQYLPSLPQSVECRPFVFSAGKPYEFSIDCDKINLFRGVFAFLLYVATFMYVFSTFANILRNKES
notes: range 247-C-terminus; also called pHRG6-g3
Molecule B2 registered an EC50 in [7] of 40 nM.

B3: soluble HRG-β1 EGF combination variant HRG73 (ligand)
chain: SHLVKCGEEREGFCVNGGECYRVKTYGYLMCKCPNEFTGDRCQHYVIAS
modifications: also: three disulfide bonds, pairing not given here
notes: also called B3+D4+E2+I2
Regarding B3, a half-maximal response in assay [8] (EC50) required 0.31 nM.

B4: soluble wild-type HRG-β1 EGF (HRG8, HRG-β1 177-228) (ligand)
chain: SHLVKCAEKEKTFCVNGGECFMVKDLSNPSRYLCKCPNEFTGDRCQNYVMAS
notes: also called HRG8 (WT)
In the case of B4, in assay [9], the “KIRA EC50 (nM): tyrosine phosphorylation of the ErbB-2 receptor on MCF7 cells” value turned out to be 0.212 nM. Moreover, the EC50 in assay [10] was 2.3 nM; in assay [8], 1.5 nM; in [11] it was 0.033 nM. The “fold higher affinity than for the 3/3 homodimer” value in assay [12] is roughly 100 fold.

B5: soluble HRG-β1 EGF variant A3 (ligand)
chain: WELVPCAEKEKTFCVNGGECFMVKDLSNPSRYLCKCPNEFTGDRCQNYVMAS
modifications: also: three disulfide bonds, pairing not given here
For the molecule B5, the EC50 in assay [10] is 4.3 nM; in assay [8], 2.1 nM.

B6: soluble HRG-β1 EGF variant F1 (ligand)
chain: SHLVKCAEKEKTFCVNGGECFKVKDLSNPSRYLCKCPNEFTGDRCQNYVIAS
modifications: also: three disulfide bonds, pairing not given here
For the molecule B6, the EC50 in assay [10] is 0.6 nM; in assay [8], 0.26 nM.

B7: HRG2: HRG-β1 177-244 displayed on phage, fused to pIII 247 (ligand, phage M13)
chain: SHLVKCAEKEKTFCVNGGECFMVKDLSNPSRYLCKCPNEFTGDRCQNYVMASFYKHLGIEFMEAEELYGGSGGGSGSGDFDYEKMANANKGAMTENADENALQSDAKGKLDSVATDYGAAIDGFIGDVSGLANGNGATGDFAGSNSQMAQVGDGDNSPLMNNFRQYLPSLPQSVECRPFVFSAGKPYEFSIDCDKINLFRGVFAFLLYVATFMYVFSTFANILRNKES
notes: range 247-C-terminus; Monovalent phage display; also called pHRG2-g3
Regarding B7, the EC50 in [13] was 13 nM; in assay [14], 19 nM; in assay [7] it was 6 nM.

B8: HRG7: HRG-β1 177-228 displayed on phage, fused to pIII 247 (ligand, phage M13)
chain: SHLVKCAEKEKTFCVNGGECFMVKDLSNPSRYLCKCPNEFTGDRCQNYVMASGGSGGGSGSGDFDYEKMANANKGAMTENADENALQSDAKGKLDSVATDYGAAIDGFIGDVSGLANGNGATGDFAGSNSQMAQVGDGDNSPLMNNFRQYLPSLPQSVECRPFVFSAGKPYEFSIDCDKINLFRGVFAFLLYVATFMYVFSTFANILRNKES
notes: range 247-C-terminus
In turn, B8 displayed an EC50 in assay [7] of 42 nM.

B9: soluble HRG-β1 EGF variant E2 (ligand)
chain: SHLVKCAEKEKTFCVNGGECFMVKDYGYLMCKCPNEFTGDRCQNYVMAS
modifications: also: three disulfide bonds, pairing not given here
The molecule B9 displayed an EC50 in assay [8] of 2.4 nM.

B10: soluble HRG-β1 EGF combination variant HRG58 (ligand)
chain: SHLVKCAEKEKTFCVNGGECYRVKTYGYLMCKCPNEFTGDRCQNYVIAS
modifications: also: three disulfide bonds, pairing not given here
notes: also called D4+E2+M50I
For B10, the EC50 in assay [8] stood at 0.3 nM.

B11: HRG5: HRG-β1 147-244 displayed on phage, fused to pIII 247 (ligand, phage M13)
chain: YVSSESPIRISVSTEGANTSSSTSTSTTGTSHLVKCAEKEKTFCVNGGECFMVKDLSNPSRYLCKCPNEFTGDRCQNYVMASFYKHLGIEFMEAEELYGGSGGGSGSGDFDYEKMANANKGAMTENADENALQSDAKGKLDSVATDYGAAIDGFIGDVSGLANGNGATGDFAGSNSQMAQVGDGDNSPLMNNFRQYLPSLPQSVECRPFVFSAGKPYEFSIDCDKINLFRGVFAFLLYVATFMYVFSTFANILRNKES
notes: range 247-C-terminus; Monovalent phage display; also called pHRG5-g3
In [7], B11 came in with an EC50 of 4.7 nM.

B12: HRG11: HRG-β1 177-230 displayed on phage, GGGSGGG linker to pIII 247 (ligand, phage M13)
chain: SHLVKCAEKEKTFCVNGGECFMVKDLSNPSRYLCKCPNEFTGDRCQNYVMASFYGGGSGGGGGSGGGSGSGDFDYEKMANANKGAMTENADENALQSDAKGKLDSVATDYGAAIDGFIGDVSGLANGNGATGDFAGSNSQMAQVGDGDNSPLMNNFRQYLPSLPQSVECRPFVFSAGKPYEFSIDCDKINLFRGVFAFLLYVATFMYVFSTFANILRNKES
notes: range 247-C-terminus; Monovalent phage display; also called pHRG11-g3
Regarding B12, in assay [7], the EC50 came out at 19 nM.
